According to FireProtDB (doi:10.1021/acs.biochem.7b00833):
Where “and” joins values, the source holds several entries; their conditions need not be identical. Equal entries are not always repeated.

B1: SCO1 protein homolog, P54178 (parent)
chain: MKVIKGLTAGLIFLFLCACGGQQIKDPLNYEVEPFTFQNQDGKNVSLESLKGEVWLADFIFTNCETICPPMTAHMTDLQKKLKAENIDVRIISFSVDPENDKPKQLKKFAANYPLSFDNWDFLTGYSQSEIEEFALKSFKAIVKKPEGEDQVIHQSSFYLVGPDGKVLKDYNGVENTPYDDIISDVKSASTLK

Variants of: B1
Conditions: Bacillus subtilis (strain 168), pH 7, CD, Sodium Phosphate Buffer, structure 1XZO, whole UniProt chain shown; for ddG of mutation (higher = less stable) / denaturant m value / denaturant midpoint (higher = more stable) / unfolding free energy: 25 °C, Urea

## W55A F61W
  ddG of mutation (higher = less stable): 8.03 kcal/mol
  denaturant m value: 3.74 kcal/mol/M
  denaturant midpoint (higher = more stable): 0.8 M
  unfolding free energy: 1.9 kcal/mol

## W55A W120A F61W
Thermal
  change of melting temperature, mutant - wild type (higher = more stable): -18 °C and -15.7 °C

## F61W
  ddG of mutation (higher = less stable): -2.87 kcal/mol
  denaturant m value: 4.24 kcal/mol/M
  unfolding free energy: 12.8 kcal/mol
Thermal
  change of melting temperature, mutant - wild type (higher = more stable): 4.3 °C and -0.6 °C

## W55A
  ddG of mutation (higher = less stable): 8.93 kcal/mol
  denaturant m value: 1.92 kcal/mol/M
  denaturant midpoint (higher = more stable): 0.75 M
  unfolding free energy: 1 kcal/mol

## W120F
  ddG of mutation (higher = less stable): 2.89 kcal/mol
  denaturant m value: 3.93 kcal/mol/M
  denaturant midpoint (higher = more stable): 1.77 M
  unfolding free energy: 7.04 kcal/mol
Thermal
  Tm: 43.5 °C

## W120F F61W
  ddG of mutation (higher = less stable): 4.18 kcal/mol
  denaturant m value: 3.17 kcal/mol/M
  denaturant midpoint (higher = more stable): 1.81 M
  unfolding free energy: 5.75 kcal/mol
Thermal
  change of melting temperature, mutant - wild type (higher = more stable): -7.1 °C and -11.5 °C

## W55F F61W
  ddG of mutation (higher = less stable): 4.14 kcal/mol
  denaturant m value: 3.37 kcal/mol/M
  denaturant midpoint (higher = more stable): 1.72 M
  unfolding free energy: 5.79 kcal/mol
Thermal
  change of melting temperature, mutant - wild type (higher = more stable): -6.2 °C and -9.1 °C
